One series relates to HIV TAR RNA. The series is described as follows: RNA immunoprecipitation and RT-qPCR with TAR-specific primers in 293T cells. It counts as binding. The protocol: FIGS. 3A, 3B, 3C and 3D. HT1 prevents Tat from bringing active P-TEFb to TAR. FIG. 3A: HT1 inhibits the kinase activity of P-TEFb subunit CDK9. m:HT1 and/or f:Tat were transiently expressed in 293T cells. Cell lysates were used for IP using anti-Myc Ab (lanes 2-4), or control IgG (lane 1). Immunoprecipitates were incubated with ATP and recombinant GST-CTD proteins for in vitro kinase assay. Six replicate experiments were performed, and mean relative kinase activities are shown in the bar graph to the right. FIG. 3B: HT1 binds to TAR. m:HT1 or m:Tat (or empty vector, EV, as a control) was transiently co-expressed with TAR RNA-expressing pU16TAR in 293T cells. Cell lysates were used for IP using anti-Myc Ab or control IgG. RNA was purified from the immunoprecipitates and submitted to RT-qPCR using TAR-specific primers. Relative TAR enrichment was calculated as qPCR count using anti-Myc Ab minus using IgG, and normalized to EV. Error bars represent standard deviation from triplicate qPCR assays. […] Error bars represent standard deviation from triplicate qPCR assays. FIG. 3D: HT1 competes with Tat for TAR binding. m:HT1 and/or f:Tat were transiently co-expressed with TAR RNA-expressing pU16TAR in 293T cells. Cell lysates were used for IP using anti-Myc Ab or control IgG. RNA was purified from the immunoprecipitates and submitted to RT-qPCR using TAR-specific primers (upper panel). Relative TAR enrichment was calculated as qPCR count using anti-Myc Ab minus using IgG, and normalized to EV. Error bars represent standard deviation from triplicate qPCR assays.
Finally, since HEXIM1 ARM resembles the TAR-binding domain from Tat, we investigated whether HT1 could bind to HIV TAR. m:HT1 or m:Tat was co-expressed in 293T cells with TAR RNA, expressed under RNA Polymerase III dependent H1 promoter, and immunoprecipitated using anti-Myc Ab or IgG as a control. TAR RNAs co-immunoprecipitated with HT1 or Tat were quantified by RT-qPCR analysis. […] To test whether HT1 affects Tat-TAR interactions, increasing amounts of m:HT1 were also co-expressed with a fixed amount of f:Tat and TAR. […] As expected, HT1 also bound to endogenous 7SK snRNA.
For orientation: Real-time PCR tracks product formation cycle by cycle.

The subject of series [1] is HEXIM1, a bona fide target of P-TEFb. Put plainly: HEXIM1 mRNA and protein expression in 293T cells. It counts as cell-based. As to conditions: increasing amounts of m:HT1. The text has this:
Since P-TEFb is a major transcription factor and regulates the expression of many cellular genes, we next assessed whether HT1 could impair host cell gene expression through inactivation of the kinase activity of CDK9. We first investigated how HT1 impacted the mRNA and protein expression levels of HEXIM1, a bona fide target of P-TEFb.

Series [2] relates to CEM, MOLT4, and MT4 T cell lines. Put plainly: Cell growth of T cell lines stably expressing HT1 (total viable cell count). The format is cell-based. As to conditions: C-HT, MO-HT, MT-HT vs CEM, total viable cell count over time. The protocol: Finally, the impact of HT1 on cell growth was assessed using three T cell lines (CEM, MOLT4, and MT4) infected by a lentivirus expressing a triple Flag-epitope tagged HT1 (3f:HT1). Polyclonal population of HT1-expressing cells (C-HT, MO-HT, and MT-HT, respectively) was selected by puromycin and confirmed by BFP expression detected by FACS analysis and WB. […] This confirmed that HT1 was specific to HIV inhibition, and that the few off-target effects had little impact on the metabolism of the cells.

Series [3] relates to early steps of HIV infection (HIV-1 NL43ΔenvLuc). The series is described as follows: Single-round infection with Env-pseudotyped replication-defective HIV, proviral DNA by qPCR. The format is cell-based. As to conditions: C-HT, MO-HT, MT-HT cells. The source says: FIGS. 5A, 5B, 5C, and 5D. Stable expression of HT1 inhibits HIV replication. FIG. 5A. Stable expression of HT1 inhibits HIV-1 replication in C-HT cells. 1E+06 HT1-expressing CEM-HT cells and e control CEM cells were challenged by HIV-1 NL43 infection. FIG. 5B. Stable expression of HT1 inhibits HIV-1 replication in MO-HT cells. 1E+06 HT1-expressing MOLT4-HT cells, and control MOLT4 cells were challenged by HIV-1 NL43 infection. FIG. 5C. Stable expression of HT1 inhibits HIV-1 replication in MT-HT cells. 1E+06 HT1-expressing MT4-HT cells, and control MT4 cells were challenged by HIV-1 NL43 infection. In each of FIGS. 5A, 5B, and 5C, virus production was assessed by Gag p24 ELISA in supernatants when cells were passaged at days 0, 2 and 4, and plotted. Error bars represent standard deviation from triplicate experiments. FIG. 5D: Stable expression of HT1 doesn't inhibit early steps of HIV-1 infection in C-HT, MO-HT, and MT-HT cells. Single-round infection assays were performed in the same conditions as in FIG. 5A-C above, but using replication-defective HXB2 Env-pseudotyped HIV-1 NL43ΔenvLuc. The relative amount of HIV DNA integrated in the cells' genomic DNA was assessed after 24 h by qPCR. […]
On 2 dpi, virus production was detected from CEM, MOLT4 and MT4 cells and reached around 20 (CEM, MT4) to 110 (MOLT4) ng/mL p24 concentration in the supernatant on 4 dpi.

B1: HT1 (protein)
chain: KKKHRRRPSKKKRHWKPYYKLTWEEKKKFDEKQSLRASRIRAEMFAKGQPVAPYNTTQFLMDDHDQEEPDLVDMEPVDPYLEPWKHPGSQPRTACNNCYCKKCCFHCYACFTRKGLGISYG
modifications: left off: small tags and cut ends
Regarding B1, the “immunoprecipitation of TAR RNA (in words)” value with HIV TAR RNA (293T cells, anti-Myc Ab, RT-qPCR) is “immunoprecipitated TAR”. Also, in the series on HIV TAR RNA (fixed amount of f:Tat and TAR, increasing m:HT1, anti-Flag Ab), the “amounts of TAR RNA co-immunoprecipitated with f:Tat” value is given as “decreased progressively”. In the series with HIV TAR RNA (normalized to protein in input lysate), the “TAR bound, normalized by protein levels of m:HT1 and m:Tat” value is “at least as much TAR as m:Tat”. Also, the “expression level of HEXIM1 protein and mRNA” value in series [1] is listed as “did not change”. For the same molecule, the “cellular growth rate versus control cells” value in series [2] is listed as “no difference”. The “early steps of HIV infection (proviral DNA by qPCR)” value in series [3] is given as “not affected”.

These data come from patent US20210261643A1, “INHIBITORS OF P-TEFB MEDIATED TRANSCRIPTION” (The Regents of the University of California, priority 2018, published 2021).
